Assay [1] addresses FLAGemGFP-tagged PAIP2 PAM2 (PAM2 motif of PABP-interacting protein 2).
For assay [2] the target is unchanged. The source holds these as a separate data set.
For assay [3], the target named is MS2V5-eIF4G 84-295 (eIF4G deletion mutant that only contains the interaction site for PABPC1) (UniProt Q04637).
Assay [4] deals with FLAGemGFP-tagged eRF3a PAM2 (overlapping N- and C-terminal PAM2 motifs of eukaryotic release factor 3a).
The target of assay [5] is FLAGemGFP-tagged eRF3a -C PAM2 (C-terminal PAM2 motif of eRF3a).
In assay [6] the target is FLAGemGFP-tagged eRF3a -N PAM2 (N-terminal PAM2 motif of eRF3a).

One substance from article PMC5118804 can be followed below.

UniProt Q04637, sequence (Q04637 84-295, stated change not applied): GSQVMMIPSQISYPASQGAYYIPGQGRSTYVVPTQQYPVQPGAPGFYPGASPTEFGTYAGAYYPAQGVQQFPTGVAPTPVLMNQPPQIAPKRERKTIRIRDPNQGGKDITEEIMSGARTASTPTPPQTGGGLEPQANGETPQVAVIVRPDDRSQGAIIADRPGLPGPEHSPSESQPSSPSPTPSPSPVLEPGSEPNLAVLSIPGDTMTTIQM

Consider “cytoplasmic poly(A)-binding protein (PABPC1) (from UniProt P11940 1-636) (natural protein)”, for which, in assay [1], the reporter mRNA level (beta-globin 4MS2/4PP7 double tethering reporter, Northern blot, HeLa) upon tethering MS2V5-PAIP2 PAM2 upstream of PP7-tethered BTZ, relative to GST upstream of BTZ (Fig. 5d) was 8 fold and the reporter mRNA level (beta-globin 4MS2/4PP7 double tethering reporter, Northern blot, HeLa) upon tethering MS2V5-PAIP2 PAM2 upstream of PP7-tethered RNPS1, relative to GST upstream of RNPS1 (Fig. 5c) came out at 6 fold. Further, the reporter mRNA level (TPI-4MS2 reporter with the SMG5 3' UTR, Northern blot, HeLa) upon tethering MS2V5-PAIP2 PAM2, relative to MS2V5-SYNZIP 1 (Fig. 2c) in assay [2] worked out at 4 fold. In assay [3], this substance yielded a reporter mRNA level (TPI-4MS2 reporter with the SMG5 3' UTR, Northern blot, HeLa) upon tethering MS2V5-eIF4G 84-295, relative to MS2V5-GST of 5 fold. Also, the reporter mRNA level (FLAG-TPI-4MS2-SMG5, Northern blot, HeLa) upon tethering the MS2V5-tagged overlapping eRF3a PAM2 motif, relative to MS2V5-GST (Fig. 3b) in assay [4] was found to be 5 fold. In assay [5], this substance had a reporter mRNA level (FLAG-TPI-4MS2-SMG5, Northern blot, HeLa) upon tethering the MS2V5-tagged C-terminal eRF3a PAM2 motif (Fig. 3b) of 5 fold. The substance further registered a reporter mRNA level (FLAG-TPI-4MS2-SMG5, Northern blot, HeLa) upon tethering the MS2V5-tagged N-terminal eRF3a PAM2 motif (Fig. 3b) in assay [6] of 5 fold.
